# Reference: patent publication US20230340055A1 (published 2023)
# T1: Human IL-2 Receptor alpha, Fc-Tag (Symansis, New Zealand) (human, UniProt P01589 22-240)
# T1 construct: extracellular domain; Bought reagent; also called IL-2Rα; IL-2Rα-Fc; not shown: Fc-Tag (captured by anti-human IgG (Fc) antibody)
# T1 sequence (looked up): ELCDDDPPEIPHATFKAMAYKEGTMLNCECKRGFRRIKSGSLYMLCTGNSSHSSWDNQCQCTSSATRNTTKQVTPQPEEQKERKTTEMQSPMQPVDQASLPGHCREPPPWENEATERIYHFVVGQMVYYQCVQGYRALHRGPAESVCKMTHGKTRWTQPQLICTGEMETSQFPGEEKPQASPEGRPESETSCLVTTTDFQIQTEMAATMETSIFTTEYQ
# T2: Human IL-2 Receptor beta, Fc-Tag (Symansis, New Zealand) (human, UniProt P14784 27-240)
# T2 construct: extracellular domain; Bought reagent; also called IL-2Rβ; IL-2Rβ-Fc; not shown: Fc-Tag (captured by anti-human IgG (Fc) antibody)
# T2 sequence (looked up): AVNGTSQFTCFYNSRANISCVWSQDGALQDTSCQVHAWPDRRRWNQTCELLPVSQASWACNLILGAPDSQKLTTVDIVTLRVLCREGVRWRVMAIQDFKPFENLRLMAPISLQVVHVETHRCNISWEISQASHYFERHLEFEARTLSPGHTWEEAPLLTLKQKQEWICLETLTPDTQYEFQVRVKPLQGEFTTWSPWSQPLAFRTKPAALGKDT
# B1: protein 6 (ligand)
# chain: APTSSSTKKTQLQLEHLLLDLQMILNGINNYKNPKLTFGNSTKFYMPKKATELKHLQCLEEELKPLEEVLNLAQSKNFHLRPRDLISNINVIVLELKGSETTFMCEYADETATIVEFLNRWITFSQSIISTLT
# modifications: glycosylated (same sequence with the N-glycosylation motif FGNST as protein 1f); glycan sites not analysed separately for protein 6
# Legend:
# [1] = molecular target: T1, Human IL-2 Receptor alpha, Fc-Tag …; test: SPR; KD to IL-2Rα divided by KD to IL-2Rβ of the same compound
# Method: (§1) For the determination of binding kinetics to IL-2Rα the following chip preparation was used: Human IL-2 Receptor alpha, Fc-Tag (Symansis, New Zealand) was diluted in HBS-EP running buffer (GE Healthcare, 10 mM HEPES, 150 mM NaCl, 3 mM EDTA, 0.05% Surfactant P20, pH 7.4) to approx. 0.25 µg/mL and immobilized at a flow rate of 50 µL/min for 60 s to achieve 90 - 110 response units (RU).
# as §1, with “IL-2Rβ” for “IL-2Rα”, “beta,” for “alpha,”, “around” for “approx.”, “300” for “90”, “330” for “110”
# (§2) (50 µL/min flow rate, 60 s contact time, 300 s dissociation time). Double referenced data (subtracted data from the reference flow cell and the buffer only samples) was analysed via a kinetic fit (1:1 binding model) to determine KD, kₐ and kd. Regeneration after each cycle was performed with 3 M MgCl₂.
# [2] = molecular target: T1, Human IL-2 Receptor alpha, Fc-Tag …; test: calculated from the SPR KD values of Example 15; reference protein 5a
# Method: as §1
# as §1, with “IL-2Rβ” for “IL-2Rα”, “beta,” for “alpha,”, “around” for “approx.”, “300” for “90”, “330” for “110”
# as §2
# [3] = molecular target: T2, Human IL-2 Receptor beta, Fc-Tag …; test: SPR (Biacore T200), IL-2Rβ-Fc captured on anti-human IgG (Fc) CM5 chip, IL-2 as analyte, multi-cycle kinetics, 1:1 kinetic fit, 25 C
# Method: as §1, with “IL-2Rβ” for “IL-2Rα”, “beta,” for “alpha,”, “around” for “approx.”, “300” for “90”, “330” for “110”
# as §2
binder,measurement,setting,value
B1,KD-Ratio (α/β),[1],> 2.7
same,ratio of Ratio protein 6 to Ratio protein 5a (KD to IL-2Rα / KD to IL-2Rβ),[2],> 100
same,Kd,[3],740 nM
